Molecular target: Gαq construct with N-terminal fusion of LgBiT (UniProt P50148)
Test: NanoBiT Gαq-recruitment assay (concentration-response to LTC4)
Details: read at log[LTC4, (M)] = -6, the highest concentration; n = 3, mean ± s.e.m.; parent: est. 97; read off a plot; scale: normalized Gq response

| Substance | response |
| --- | --- |
| CysLT2R with C-terminal SmBiT (wild type, NanoBiT Gαq-recruitment assay) (from UniProt Q9NS75) R136A | 0 |
| CysLT2R with C-terminal SmBiT (wild type, NanoBiT Gαq-recruitment assay) (from UniProt Q9NS75) S241A | 57 |

— paper PMC12830604
